# Biological target: Bovine Hsc70 (1–554) (bovine, UniProt P19120 1-554)
# Experiment: co-sedimentation
# Sequence of Bovine Hsc70 (1–554) (P19120 1-554): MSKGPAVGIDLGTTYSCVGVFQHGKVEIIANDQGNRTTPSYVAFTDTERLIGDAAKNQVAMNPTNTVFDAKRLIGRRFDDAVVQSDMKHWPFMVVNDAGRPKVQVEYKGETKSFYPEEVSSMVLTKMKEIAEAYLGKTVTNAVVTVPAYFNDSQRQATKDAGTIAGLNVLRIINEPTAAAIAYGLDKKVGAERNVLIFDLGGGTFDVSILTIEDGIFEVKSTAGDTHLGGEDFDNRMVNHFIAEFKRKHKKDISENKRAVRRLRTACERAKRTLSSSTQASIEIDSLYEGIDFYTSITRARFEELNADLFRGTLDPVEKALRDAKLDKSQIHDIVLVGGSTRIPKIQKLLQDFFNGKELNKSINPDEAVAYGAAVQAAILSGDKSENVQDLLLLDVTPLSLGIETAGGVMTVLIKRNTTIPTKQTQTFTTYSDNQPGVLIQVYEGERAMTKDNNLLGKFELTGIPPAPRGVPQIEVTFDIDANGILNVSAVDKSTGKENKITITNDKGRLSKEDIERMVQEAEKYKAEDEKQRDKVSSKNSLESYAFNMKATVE
binder,measurement,value
"Bovine auxilin (547–910) (domain or fragment, UniProt Q27974 547-910, looked up) PSGPTSTQSTPRRSATSTSASPTLRVGEGATFDPFGAPSKPSGQDLLGSFLNTASASSDPFLQPTRSPSPTVHASSTPAVNIQPDVSGAWDWHTKPGGFGMGSKSAATSPTGSSHGTPTHQNKPQTLDPFADLGTLGGSSFASKPSTPTGLGGGFPPLSSPQKASPQPMGGGWQQGGGYNWQQTQSKPQSSMPHSSPQNRPNYNVSFSSMPGGQNERGKAAANLEGKQKAADFEDLLSGQGFNAHKDKKGPRTIAEMRKEEMAKEMDPEKLKILEWIEGKERNIRALLSTMHTVLWAGETKWKPVGMADLVTPEQVKKVYRKAVLVVHPDKATGQPYEQYAKMIFMELNDAWSEFENQGQKPLY",binding result,binds
